The results in this text go back to a protein production outcome set (Wang et al. 2014).

This series in a line: label from the status in PepcDB records.

Consider “MNSFWTFLQLIFVILQVTSLALYALLPAPWSDTVLVAMILFSLIIGIVIWWWSRRNALTAPFRQPFLSSDSLQLFEQVFNDLPTRVYWRDPELKLLGGNRAFANDFGIDPESLAGKTDAEIDSLASNDVLLERDRKTFSQQAPSVNAEIELKVSGKSQWVEHSSVPLYDDDHNIIGILGSYYDISGIKSVAEEMEKAKETAERANQSKGEFLANMSHEIRTPINAIVGMANLCLKTELTQKQKRYIKVIDSSSQALLGVINDILDFSKIDAGKLTVERIPFDLQDVLTSLADMFAYRAYDKDLEFIINLPANIPTRLIGDPLRLNQVLVNLISNAIKFTEDGEINVAVNLLDSSRDNVLLRISVTDTGIGMDEEQRANLFKAFTQADTSTTRKYGGTGLGLAISRRLILLMGGDIGVTSAAGQGSTFYIEVELPLQTEQDNSHHQYLLQKLKGVRILAIDDNLSTREMLYEMLRSYQVDVKVCRTAEQALQVFQLSVEDNNPYQLVLVDWRLPGMDGLEFCQKITERYAEDIRPKMTLATGYYAEELSEKAKQAGVNDIISKPFTASTLGRSLTSTLFQRELSDADDADSGDGIPESILRAPILVVEDNEINQQVAREILSSHKFKVDIVENGQLAVEAVHNKNYSLVLMDIQMPVMDGLKAAQTIRADFNYQQLPILAMTANAMSGDEERSLAAGMQGHIAKPIDEQQLIKAIIKWAVPGDYTNNQQPEVPPESKQDEVNKPPVRIPQVKGIEFETALKRLQYNVELYLKLVEQLYETYQGSATKVSDFITRGQHESARRYFHSLKGAAANLGFTQLQSKAADLEQFMAEGNIDKVADQITELEKRLRYAHQAAVDLEAIQQHQS”, for which the protein production entry was “failed”.

Regarding “MNSGTLLGKASISFSRPVYIQSCASVVGPKEGDGPLKNCFDMICDDPMFGEKKWEAAESAMQKEAAVLAIGKAGLTPDDIRFVFAGDLLAQTIASSFGIAEMGIPFFGLYGACSTMGESLSLGAIAVSAGYGHHILCATSSHFATAEKEFRFPLGYGCQRPLSATWTVTGSAACILSPEAPHPSEIVGSSLLRSTLGSVAITGITTGKVIDFGFRDSLNMGGCMAPAACDTIYRNFEDFGRSVNDYDAVLTGDLGVVGRQILLDLLKEKNIDLSSVHQDCGLLIYDNQKQDTHSGGSGCGCAASVLAAYILPRVVSGFWKRVLFVPTGAMLSKVSFNEGESVAGIAHGVVIEHISKETEV”, the protein production entry is listed as “failed”.

In the case of “MNSLPIADLLVSAVIAACIVLSAMRGVIAEAGSMAAWVVSFFFAKLFAASFADLAFASFQPRLFALALSFISLFVIACLIQKMLRSLLTSAVSAVGLGFANRILGGVFGALKGVLIVTLLVMLASKTDLPDTEEWRQSYTLPFFVSLSEAVLNHSGGTAETPEDD”, the protein production result is on record as “failed”.

For the sequence “MNSPANITDPLVLFMPSGKRGRFPVGTPVLDAARQLGVYVESVCGGRATCGRCQIEVQEGNFAKHKIVSSNDHISPKGPKEERYERVRGLPERRRLSCSAQILGDLVIDVPQDTVINAQTIRKDADTRVIARDTAIRMCYVEIEEPDMHKPLGDLDRLKIALMKDWGFKNLEFDFYLLPQVQGILRKGNWTATAAIHKDADSDIARVIALWPGLKNEAYGLACDIGSTTIAMHLVSLLSGRVAASSGTSNPQIRFGEDLMSRVSYVMMNPDGREGMTVAVREAISSLVDKVCAEGNVQRNDILDSVFVGNPIMHHLFLGIDPTELGGAPFALAVSGAVRIKASDIGLKLNQGARLYMLPCIAGHVGADAAAVTLSEGPHRQDEMMLIVDVGTNAEIVLGNRARVVAASSPTGPAFEGAEISGGQRAAPGAIERVRIDPDTLEPKYRVIGSELWSDEPGFLDSVQATGVTGICGSGIIEIVAEMYLAGIISEDGVVDGSLAARSPRVTANGRTFSYVLKEGEPKITITQTDVRAIQLAKAALYAGTKLLMEKQNTEHVDRIHFAGAFGSFIDPKYAMVLGLIPDCDLDKVSAVGNAAGAGARMALLNRGYRREIEETVSQIEKIETALEPKFQEHFVYAMALPNKVDPFPKLSAAVKLPPRKTVSEDGIAGDATPRRRSREGHAARRSRE”, the protein production result was “failed”.

For the sequence “MNSQPRHFAPLARLLHWLMALLIIAMLFIGAGMVASVSARHEWLIHLHKPLGIAILLLVLVRLWVRFYTRQPPLPADLPGWQVLAAKASHVLLYALMLSLPLLGWGMISAAGDPVMLGSSLQLPAILPANAQLFAVLRKAHGYLAYLLFFTVLLHLAAALFHGWVRRDGVLQSMLRGRG”, the protein production result is reported as “not failed”. As for “MNSRLGTTASSITRSALPTTVVWDPAMTAYNFGPGHPMAPQRLELTARLAESLGLFNHNHVAVEAPTVATDVELFSVHSRDYVEAVRRVSADPSAPEEERGLGTEDDPAFAGMHEASARLAGGSLLAAETILSGQAVRAVNFSGGMHHAARERASGFCVYNDVALAIQKLLDGGVQRVVSIDVDAHHGDGTQSIFWNDPRVMTISLHETGLTLFPGTGFANETGGPDAPGTAVNVALPAFTGDAAWLRAFHAVVPQLVGAFQPEVIVSQHGCDSHRDDPLTHLNLSVDGQREAASAVAGLAARYCDNRWIATGGGGYDVTGVVPRAWSHLIGMVTQRPVPLKTPVPEAWRSYVKETYGVWAPESMSDDVDVWWRSWEVGYNPADEVDRTVIATRKEIFPLYGLDPWFD”, the protein production entry is “failed”. To “MNSYDETVQDIITAVGGKDNIEEVFHCVARLRFYLKDSTQLNKTILQKNSNIYDFKFENNQLQILIGSDVNKYYKALMKCINEDKDFSKAKKGNIKMSKSSDKDKQLAEQIVKLVGGKENVNSLIHCVTRLRFKLKDESKADDEAIKNLHGVMGVAHAGGQYQVIIGNNVTDIYDQVMPLLGLSSEQEVTQDDEKEGNIFSRLVALISSLFMPLLGVMTGAGMLKGLLVLFGVLGWVKQGTGTYMILNAAADALFYFLPILLGFTAGKTFKINPFVGAVTGGALVYPSMVAAATAHKAITFLGIPVNLMNYSQTMLPIVIAIWGMSWLEKGTKKIIPSSVRNLFVPLLDLMIVVPLAYIIIGPIMQTLSQWLSEASLWIYGILPVAAGFIIGGIWQGAVILGLHWAFIPVLMNNLMTNHFDPINGIMYCTLFGQVGACFAMGLKAKDKNFKEIAIPAAISGLVGITEPIIYGVTLPHKKAFAFASVGSAFGGAIAAACHAGMYTMPGGGIFGIPAFINPKGINMQFYGFLISLLVAIVVSFVLTMIFGDTVVPSAPKAKVQVKKAEFKDQAIYSPLEGTVVELKDVKDPVFSAGTIGKGIAVKPTNNEVRAPFDGKVISVFPTKHAIGLKSENGVELLIHLGIDTVNLQGKYFDSMVKDGQEIKKGDLIEKFDVQAIQEAGYDTVVPIVVTNSNNFDDVISEKKNGDKVNFGDQLLMATVEQDVNVQDSSIAKA” belongs “failed”; to “MNTEPANVEDKLPMNILVLGSDEKQGGRSDTIMLVHIQKDFQPIVISIPRDTRVKVEGIKGYSKINAAYAYGKSKLAVKTVEDILGIKIDKYVVVNYEAVEKIVDLVGGVDVEVPFHLYYVDTTPGKELYINIPAGLQHLDGKKAVEFLRWRHNSNGKEYGRGGDLGRIEMQRKLLYALIEKMLKPQNIVRLPLIVQTVSKYTDHNFTKNEIMWFIQNVGKFNTQNIMMTILPGYPKYIDRVSYYILNEEKCRALIDDLNEPEVLKDSMKIKILSKSFDDKATQLKNDLESKGYSNVNLGRVSKLESSEVELKRVNRKYLELLKNDIDLSTYQVVYSPDYSDKFDVYIKVKLEHHHHHH”, “not failed”; to “MNTHYVGPVLYTPKENVSEKLLKLFDADQPIIFCYTARFYDNVGESGKAIFDNMIKIADKIDASIIISTGNKKDELLALDIASKELKSGKVSIVDYVPLDMAYEKSDLVIHHGGHGSCLAQFYYGVPSVIIPTHTEREYNARMCEKLHVGKMLPRRELNSANLKNCINDVLNDITYKKSVRDWKEKVSGLEHHHHHH”, “failed”. To “MNTLLLTAGRVLLALYFLIPGIMKFVSWDMHIQLMEKHEMPFVPVLLGLAGVFQIGAAILLIANRFTWIVALLLAGLVLVINVSLHDFWNYSGMEGAHEMQNFIKNLGIFAGLLVLSGHSMPECCKTKKKS” belongs “failed”. The same measure for “MNTMEEKYILSDRGKVYYWIKESNSVFAKNLIFLPGLTANHHLFDFQIQYFSKNHNVLVWDAPAHGKSRPYLDFSYSNLVEELKVILDKQNMKKVVLIGQSAGGFVAQSFIVKYPNMVEGLMMIGTCPYGTDYYSKSDIFWLKQTEWMLKLFPDKLLRNIISKMCGATSEGRRSMLKMLEGYEKKELCHLMYLGFAGFIPEIQDLNIHCPVCLVVGDKDKTGKVRKYNEQWHNKTGYPLHIIKNASHNVNVDKPNELNQIMDIFIKQLN”: “not failed”; for “MNTSCTSYHSMALSESQRDILGMIATNHQLHDILTAICLMIDAQDPGTLCSILLTDAQGKHLLKGAAPGLPPAYSDAIHGLPIGPQEGTCGTAAFRRELVVTADIARDPSWERFRSLALGYNLRSCWSLPLLSHEGSVLGTFALYQDQAIAPSEVQIHRLTCAAQLAAIAIRH”: “failed”. “MNTSGIGGYFRQGLFGRDLLASVVVFLVALPLCMGIAIASGMPPAAGLITGIVGGLVVGFLAGSPLQVSGPAAGLAVLVFELVREHGAVALGPVILVAGAIQLIAGLCRAGVWFRMTSPAVVAGMLSGIGILIVASQAHVLMDAAPKARGLENFAALPGVLWQAISEGTGRNALFVGLATIGIILAWDKLRPQRLRFLPGALIAVVVVTATVQLQGLNVNKVDVPTNLFSAISIPSISDIFGVFNHTLLVSAVTFAFIASAETLLSAAAVDRMHQGARTQYDRELAAQGVGNMLCGFLGALPMTGVIVRSAANVQAGAATRASTILHGSWLLVFAMLLPWLLRMTPVACLAGILVYTGVKMIKIGQVKELATYGRGTAAIYLATTFAIVATDLLTGVLIGFGLSLFRLALHSSRLKVEVREHADKKDEMHLTLQGSATFLKVPAMARTLESVPPNTALHLDVAKLHHVDHACIELLRDWSRNAASRGCELVVDWKELDRRVEGQPTVDGVLVEQRVEQAKAA”: the protein production result is on record as “failed”.

For the sequence “MNTSHVRVVTHMCGFLVWLYSLSMLPPMVVALFYKEKSLFVFFITFVIFFCIGGGAWYTTKKSGIQLRTRDGFIIIVMFWILFSVISAFPLWIDSELNLTFIDALFEGVSGITTTGATVIDDVSSLPRAYLYYRSQLNFIGGLGVIVLAVAVLPLLGIGGAKLYQSEMPGPFKDDKLTPRLADTSRTLWITYSLLGIACIVCYRLAGMPLFDAICHGISTVSLGGFSTHSESIGYFNNYLVELVAGSFSLLSAFNFTLWYIVISRKTIKPLIRDIELRFFLLIALGVIIVTSFQVWHIGMYDLHGSFIHSFFLASSMLTDNGLATQDYASWPTHTIVFLLLSSFFGGCIGSTCGGIKSLRFLILFKQSKHEINQLSHPRALLSVNVGGKIVTDRVMRSVWSFFFLYTLFTVFFILVLNGMGYDFLTSFATVAACINNMGLGFGATASSFGVLNDIAKCLMCIAMILGRLEIYPVIILFSGFFWRS”, the protein production entry is given as “failed”. The same measure for “MNTTEFDGISHAEGLCDKEFIGKAISYLYRYGQIYIGKKIEPYGIGSGQFPFLMRLYREDGINQESLSDYLKIDKGTTARAIQKLVDEGYVFRQRDEKDRRSYRVFLTEKGKKLEPDMKKIASEWGEILFSSFDDRQRREITNSLEIMFENGLKIM”: “not failed”.
